Results as given in US20210324096A1 (Genmab, published 2021).

What was measured:
DR5ECD-FcHistag [1] = molecular target: T1, DR5ECD-FcHistag (human); experiment: crossblock sandwich ELISA, antibody coated, competitor IgG1-DR5-CONA-K409R
T1 construct: 453 is the counted length of the printed entry; also called DR5ECD-FcHisCtag; DRSECD-FcHistag

[2] = molecular target: T2, murine (Mus musculus) DR5, full-length (mouse, UniProt Q9QZM4 53-381); experiment: flow cytometry on transfected CHO cells (FIG. 5D)
T2 construct: also called mouse DR5

DR5ECD-FcHistag [3] = molecular target: T1, DR5ECD-FcHistag; experiment: crossblock sandwich ELISA, antibody coated, competitor IgG1-hDR5-01-E430G
[4] = molecular target: T3, cynomolgus monkey DR5 protein with deletion of amino acids 185-213 and death domain loss-of-function mutation … (cynomolgus monkey (Macaca fascicularis)); experiment: flow cytometry on cynomolgus DR5-transfected CHO cells, four experiments (SD 0.084)
T3 construct: Transiently expressed on CHO cells; also called Cyno DR5Mfdel-K420N; cynomolgus DR5-transfected CHO
T3 chain: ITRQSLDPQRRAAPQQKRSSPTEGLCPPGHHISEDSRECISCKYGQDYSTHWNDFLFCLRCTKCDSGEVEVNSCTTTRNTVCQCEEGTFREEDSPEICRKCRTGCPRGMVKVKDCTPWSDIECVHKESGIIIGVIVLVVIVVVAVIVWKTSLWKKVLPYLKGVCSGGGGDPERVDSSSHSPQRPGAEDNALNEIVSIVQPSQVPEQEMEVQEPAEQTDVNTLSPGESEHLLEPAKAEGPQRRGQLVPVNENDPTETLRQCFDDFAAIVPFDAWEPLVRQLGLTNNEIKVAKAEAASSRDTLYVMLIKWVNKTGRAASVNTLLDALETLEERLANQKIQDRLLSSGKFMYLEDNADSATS

[5] = molecular target: T4, human DR5 (death receptor 5), full-length (human, UniProt O14763 56-440); experiment: flow cytometry on HCT 116 cells
T4 construct: also called TRAILR2; CD262

DR5ECD-FcHistag [6] = molecular target: T1, DR5ECD-FcHistag; experiment: crossblock sandwich ELISA, antibody coated, competitor IgG1-DR5-chTRA8-F405L

B1: IgG1-DR5-chTRA8-F405L (antibody, name in EU numbering, V domains shown)
VH: EVMLVESGGGLVKPGGSLKLSCAASGFTFSSYVMSWVRQTPEKRLEWVATISSGGSYTYYPDSVKGRFTISRDNAKNTLYLQMSSLRSEDTAMYYCARRGDSMITTDYWGQGTTLTVSS
VL: DIVMTQSHKFMSTSVGDRVSITCKASQDVGTAVAWYQQKPGQSPKLLIYWASTRHTGVPDRFTGSGSGTDFTLTISNVQSEDLADYFCQQYSSYRTFGGGTKLEIKR
notes: F405L is counted by EU numbering; also called IgG1-chTRA8-F405L
DR5ECD-FcHistag [1]
  binding result: binds

B2: IgG1-hDR5-05-F405L (antibody, name in EU numbering)
heavy: not shown
light: DIQLTQSPSSLSASVGDRVTITCSASSSVSYMYWYQQKPGKAPKPWIYRTSNLASGVPSRFSGSGSGTDFTLTISSLQPEDFATYYCQQYHSYPPTFGGGTKVEIKRTVAAPSVFIFPPSDEQLKSGTASVVCLLNNFYPREAKVQWKVDNALQSGNSQESVTEQDSKDSTYSLSSTLTLSKADYEKHKVYACEVTHQGLSSPVTKSFNRGEC
notes: IgG1,kappa; F405L is counted by EU numbering, not on the entry; also called humanized DR5-05
[2]
  binding result: no binding (tested: 10 µg/mL)

B3: IgG1-hDR5-05-E430G (antibody)
heavy: not shown
light: B2 light
notes: IgG1,kappa
DR5ECD-FcHistag [3]
  binding result: binds
[4]
  EC50: 0.17 µg/mL

B4: IgG1-hDR5-05-N55D-F405L (antibody, V domains shown)
VH: QVQLVQSGAEVKKPGASVKVSCKASGFNIKDTHMHWVRQAPGQRLEWIGRIDPADGNTEYDQKFQGRVTITVDTSASTAYMELSSLRSEDTAVYYCARWGTNVYFAYWGQGTLVTVSS
VL: DIQLTQSPSSLSASVGDRVTITCSASSSVSYMYWYQQKPGKAPKPWIYRTSNLASGVPSRFSGSGSGTDFTLTISSLQPEDFATYYCQQYHSYPPTFGGGTKVEIKR
notes: IgG1,kappa; deamidation-mimicking variant
[5]
  binding result: binds

B5: IgG1-DR5-CONA-K409R (antibody, V domains shown)
VH: QVQLQESGPGLVKPSQTLSLTCTVSGGSISSGDYFWSWIRQLPGKGLECIGHIHNSGTTYYNPSLKSRVTISVDTSKKQFSLRLSSVTAADTAVYYCARDRGGDYYYGMDVWGQGTTVTVSS
VL: EIVLTQSPGTLSLSPGERATLSCRASQGISRSYLAWYQQKPGQAPSLLIYGASSRATGIPDRFSGSGSGTDFTLTISRLEPEDFAVYYCQQFGSSPWTFGQGTKVEIK
notes: Expressed as IgG1,kappa with K409R (EU); also called IgG1-CONA-K409R; conatumumab variant
DR5ECD-FcHistag [6]
  binding result: binds
